The source of these data is PMC11423568, “Functional investigation of the two ClpPs and three ClpXs in Myxococcus xanthus DK1622” (mSphere, 2024).

Series [1] deals with the molecule itself. The experiment in a line: cross-linking; 20 µM ClpP1 or ClpP2 in 20 mM HEPES, 100 mM NaCl, 1 mM EDTA, pH 7.5, 25°C; glutaraldehyde (0.1% in methods, 1% in legend) 10 min, quenched with 200 mM Tris-HCl pH 7.5; SDS-PAGE.
Series [2] concerns the target T1, Myxococcus xanthus DK1622 trigger factor Tig (MXAN_2013), His- or MBP-tagged, for pulldown (Myxococcus xanthus DK1622, UniProt Q1DAT1 1-425).
T1 construct: ribosome-associated molecular chaperone trigger factor, Myxococcus xanthus DK1622, locus MXAN_2013; source: E. coli BL21, purified (Ni Sepharose for His tag, maltose elution for MBP)
T1 sequence (looked up): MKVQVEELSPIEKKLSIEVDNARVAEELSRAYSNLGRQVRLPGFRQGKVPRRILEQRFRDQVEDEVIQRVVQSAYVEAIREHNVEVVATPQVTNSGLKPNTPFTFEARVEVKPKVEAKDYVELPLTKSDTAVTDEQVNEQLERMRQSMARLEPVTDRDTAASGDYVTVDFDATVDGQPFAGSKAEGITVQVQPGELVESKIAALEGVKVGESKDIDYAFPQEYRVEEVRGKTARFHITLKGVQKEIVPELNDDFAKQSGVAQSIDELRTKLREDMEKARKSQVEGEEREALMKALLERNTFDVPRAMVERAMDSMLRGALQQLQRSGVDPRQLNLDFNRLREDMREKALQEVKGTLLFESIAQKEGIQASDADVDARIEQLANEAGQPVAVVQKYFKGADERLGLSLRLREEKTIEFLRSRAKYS
The series is described as follows: pull-down; purified His-tagged and MBP-tagged proteins mixed, room temperature 30 min, passed through Ni-NTA resin (His-tagged protein held), washed with suspension buffer, eluted with 250 mM imidazole; MBP mixed with His-labeled protein as negative control. To be noted: both partners purified.

Broadly, the stoichiometry N is the number of molecules, sites or subunits per partner or assembly.

B1: Myxococcus xanthus DK1622 ClpP1 (MXAN_2014), no tag (enzyme)
chain: not shown
notes: ClpP1, peptidase subunit of ClpXP, Myxococcus xanthus DK1622, locus MXAN_2014; also called nonlabeled ClpP1; nontagged ClpP1; source: E. coli BL21, purified; copies: 14
As for B1, the “stoichiometry N” value in series [1] was 14.

B2: Myxococcus xanthus DK1622 ClpP1 (MXAN_2014), His- or MBP-tagged, for pulldown (enzyme)
chain: not shown
notes: ClpP1, peptidase subunit of ClpXP, Myxococcus xanthus DK1622, locus MXAN_2014; source: E. coli BL21, purified (Ni Sepharose for His tag, maltose elution for MBP)
B2: the binding result in series [2] is given as “binds”.
